Assays:
[1] = target: T1, human A33 transmembrane glycoprotein expressed on stably transfected murine colorectal carcinoma cells (Homo sapiens (Human)., UniProt Q99795); test: immunostaining of cells or tissue
[2] = target: T1, human A33 transmembrane glycoprotein …; test: flow cytometry on cells
[3] = target: A33 in human colon and human colon adenocarcinoma tissue sections (Homo sapiens (Human)., UniProt Q99795); test: immunostaining of cells or tissue
Chain of A33 in human colon and human colon adenocarcinoma tissue sections (Q99795 22-319): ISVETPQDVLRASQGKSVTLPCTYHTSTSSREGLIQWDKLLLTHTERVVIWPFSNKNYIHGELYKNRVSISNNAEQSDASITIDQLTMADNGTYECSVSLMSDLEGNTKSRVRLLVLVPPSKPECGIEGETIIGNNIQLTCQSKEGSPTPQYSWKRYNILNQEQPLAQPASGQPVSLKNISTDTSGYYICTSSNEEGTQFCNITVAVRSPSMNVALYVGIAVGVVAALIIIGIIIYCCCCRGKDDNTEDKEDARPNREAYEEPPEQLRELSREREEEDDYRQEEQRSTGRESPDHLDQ

T1 sequence (Q99795 22-319): as above

Row | binding result [1] | binding result [2] | binding result [3] | Binder
1 | binds | – | – | FITC-labeled IgG2a(MG) (antibody, V domains shown) VH: QVQLQQSGPELVKPGASVKISCKASGYTFSGSWMNWVKQRPGQGLEWIGRIYPGDGETNYNGKFKDKATLTADKSSTTAYMELSSLTSVDSAVYFCARIYGNNVYFDVWGAGTTVTVSS VL: QIVLTQSPAIMSASPGERVTMTCSARSSISFMYWYQQKPGSSPRLLIYDTSNLASGVPVRFSGSGSGTSYSLTISRMEAEDAATYYCQQWSSYPLTFGSGTKLELK
2 | – | binds | binds | IgG2a(K), murine anti-A33 antibody K in murine IgG2a format (antibody, V domains shown) VH: EVKLVESGGGLVKPGGSLKLSCAASGFAFSTYDMSWVRQTPEKRLEWVATISSGGSYTYYLDSVKGRFTISRDSARNTLYLQMSSLRSEDTALYYCAPTTVVPFAYWGQGTLVTVSA VL: DIVMTQSQKFMSTSVGDRVSITCKASQNVRTVVAWYQQKPGQSPKTLIYLASNRHTGVPDRFTGSGSGTDFTLTISNVQSEDLADYFCLQHWSYPLTFGSGTKLEVK
3 | binds | – | – | FITC-labeled IgG2a(K) (antibody, V domains shown) VH: EVKLVESGGGLVKPGGSLKLSCAASGFAFSTYDMSWVRQTPEKRLEWVATISSGGSYTYYLDSVKGRFTISRDSARNTLYLQMSSLRSEDTALYYCAPTTVVPFAYWGQGTLVTVSA VL: DIVMTQSQKFMSTSVGDRVSITCKASQNVRTVVAWYQQKPGQSPKTLIYLASNRHTGVPDRFTGSGSGTDFTLTISNVQSEDLADYFCLQHWSYPLTFGSGTKLEVK

Source: publication PMC6999842 (mAbs, 2020)
